System: Escherichia coli TOP10
Assay: shrunken log2 fold change of peptide-encoding DNA abundance (4.5 h post-induction vs induction); higher = less antimicrobial activity (less host growth inhibition)
Conditions: time post-induction: 4.5 h; library: site-saturation at positions 5, 18, 19, 20
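Note: peptides expressed intracellularly from a pBAD plasmid library in pooled LB shake-flask culture, induced with 0.3% L-arabinose, DNA abundance read by NGS, three biological replicates, DESeq2 with apeglm shrinkage.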

Sequence | shrunken log2 fold change
RRIRHRPPRLPRPRPRPCMTPRP | 0.0183
RRIRYRPPRLPRPRPRPCATPRP | 0.0757
RRIRCRPPRLPRPRPRPPGGPRP | 0.539
RRIRRRPPRLPRPRPRPIKMPRP | -0.0923
RRIRERPPRLPRPRPRPFCSPRP | -0.204
RRIRIRPPRLPRPRPRPSIEPRP | -0.407
RRIRSRPPRLPRPRPRPHIDPRP | -0.369
RRIRYRPPRLPRPRPRPKQTPRP | 0.283
RRIRYRPPRLPRPRPRPRNSPRP | 0.022
RRIRLRPPRLPRPRPRPKFFPRP | 0.002
RRIRARPPRLPRPRPRPYWEPRP | -0.312
RRIRIRPPRLPRPRPRPTFEPRP | 0.168
RRIRERPPRLPRPRPRPTGYPRP | -0.0056
RRIRMRPPRLPRPRPRPYDVPRP | -0.562
RRIRERPPRLPRPRPRPMMRPRP | 0.169
RRIRERPPRLPRPRPRPKAEPRP | 0.0519
RRIRFRPPRLPRPRPRPQQYPRP | -0.552
RRIRLRPPRLPRPRPRPTFCPRP | 0.0876
RRIRHRPPRLPRPRPRPGVWPRP | 0.178
RRIRRRPPRLPRPRPRPGDRPRP | 0.265

Sequence | shrunken log2 fold change
RRIRTRPPRLPRPRPRPQDTPRP | -0.284
RRIRSRPPRLPRPRPRPRTEPRP | 0.00553
RRIRVRPPRLPRPRPRPQLSPRP | 0.132
RRIRARPPRLPRPRPRPMMQPRP | 0.185
RRIRWRPPRLPRPRPRPQRMPRP | 0.0753
RRIRWRPPRLPRPRPRPIMRPRP | 0.0401
RRIRNRPPRLPRPRPRPADGPRP | 0.085
RRIRERPPRLPRPRPRPAFMPRP | -0.154
RRIRGRPPRLPRPRPRPILGPRP | -0.0749
RRIRYRPPRLPRPRPRPFQTPRP | -0.0251
RRIRVRPPRLPRPRPRPMQMPRP | -0.0841
RRIRGRPPRLPRPRPRPQAQPRP | 1.02
RRIRVRPPRLPRPRPRPILWPRP | 0.0127
RRIRQRPPRLPRPRPRPAITPRP | -0.114
RRIRWRPPRLPRPRPRPEIMPRP | 1.1
RRIRARPPRLPRPRPRPGDVPRP | 0.194
RRIRQRPPRLPRPRPRPSYIPRP | -0.417
RRIRIRPPRLPRPRPRPIRVPRP | -0.0611
RRIRARPPRLPRPRPRPYWGPRP | -0.43
RRIRIRPPRLPRPRPRPYKHPRP | -1.57

Sequence | shrunken log2 fold change
RRIRFRPPRLPRPRPRPMGFPRP | -0.0249
RRIRNRPPRLPRPRPRPRWWPRP | 0.159
RRIRNRPPRLPRPRPRPMYPPRP | -0.271
RRIRDRPPRLPRPRPRPIKCPRP | -0.0161
RRIRNRPPRLPRPRPRPFDNPRP | -0.465
RRIRLRPPRLPRPRPRPLRRPRP | 0.249
RRIRVRPPRLPRPRPRPAKDPRP | 0.00226
RRIRQRPPRLPRPRPRPYCMPRP | -0.302
RRIRMRPPRLPRPRPRPTFRPRP | -0.091
RRIRFRPPRLPRPRPRPKDIPRP | -0.676
RRIRSRPPRLPRPRPRPIFEPRP | 0.0577
RRIRKRPPRLPRPRPRPSCHPRP | -0.132
RRIRERPPRLPRPRPRPNKDPRP | -0.321
RRIRKRPPRLPRPRPRPPQFPRP | 0.127
RRIRWRPPRLPRPRPRPLWGPRP | 0.08
RRIRRRPPRLPRPRPRPTQRPRP | 0.625
RRIRVRPPRLPRPRPRPRTHPRP | 0.199
RRIRHRPPRLPRPRPRPIQVPRP | 0.000744
RRIRVRPPRLPRPRPRPPASPRP | 0.398
RRIRYRPPRLPRPRPRPEKPPRP | -0.00145

— the supplement of paper PMC9112550, “Optimization of the antimicrobial peptide Bac7 by deep mutational scanning” (BMC Biology, 2022)
